From patent US11306156

Columns and labels:
[1] = molecular target: tissue factor (TF) antigen (UniProt P13726); test: SPR, same assay; reference wild-type D3H44 Fab
[2] = molecular target: tissue factor (TF) antigen (UniProt P13726); test: SPR (ProteOn XPR36), Fab captured on anti-penta His surface, TF injected as analyte, 1:1 model
[3] = molecular target: tissue factor (TF) antigen (UniProt P13726); test: SPR, Fab captured on anti-penta His, TF injected, 1:1 fit
[4] = molecular target: tissue factor (TF) antigen (UniProt P13726); test: SPR; reference wild-type D3H44 Fab
[5] = molecular target: tissue factor (TF) antigen (UniProt P13726); test: SPR, Fab captured on anti-penta-His, TF as analyte, 1:1 fit
[6] = molecular target: tissue factor (TF) antigen (UniProt P13726); test: SPR, against wild-type D3H44 Fab; batch C (+)
[7] = molecular target: tissue factor (TF) antigen (UniProt P13726); test: SPR (ProteOn XPR36), Fab captured on anti-penta-His, TF injected, 1:1 fit; batch C (+)
[8] = molecular target: tissue factor (TF) antigen (UniProt P13726); test: SPR (ProteOn), Fab captured on anti-penta-His surface, TF injected; reference wild-type D3H44 Fab
[9] = molecular target: tissue factor (TF) antigen (UniProt P13726); test: SPR (ProteOn), Fab captured on anti-penta-His surface, TF injected, 1:1 fit
[10] = molecular target: tissue factor (TF) antigen (UniProt P13726); test: SPR (ProteOn XPR36), His-tagged Fab captured on anti-penta His, TF as analyte, 1:1 fit

tissue factor (TF) antigen, sequence (P13726 33-251 limits assumed): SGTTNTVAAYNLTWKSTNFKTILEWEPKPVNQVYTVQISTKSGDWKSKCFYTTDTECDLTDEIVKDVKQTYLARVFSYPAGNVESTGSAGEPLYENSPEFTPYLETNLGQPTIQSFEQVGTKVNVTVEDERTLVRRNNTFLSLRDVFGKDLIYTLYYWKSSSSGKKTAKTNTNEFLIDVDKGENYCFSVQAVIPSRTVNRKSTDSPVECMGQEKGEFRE

| Substance | Kd [3] | Change in KD with respect to wild type (-(log(KD design) - log(KD wt))) [4] | Change in KD with respect to wild type (-(log(KD design) - log(KD wt))) [5] | Kd [5] | other results |
| --- | --- | --- | --- | --- | --- |
| H1L1 Fab heterodimer of LCCA set 9516 (D3H44 Fab, H1 L124R_S186R, L1 Q124E_V133G_S176D_T178D_T180E) | – | – | – | – | change in median KD of H1L1 Fab heterodimer compared to wild type (-(log(KD design)-log(KD wt))) [1]: -0.21; Kd [2]: 0.26 nM |
| H1L1 Fab heterodimer of LCCA set 9260 (D3H44 Fab, H1 L124E_L143E_K145M, L1 Q124K_V133G_S176R_T178K) | – | – | – | – | change in median KD of H1L1 Fab heterodimer compared to wild type (-(log(KD design)-log(KD wt))) [1]: -0.19; Kd [2]: 0.24 nM |
| D3H44 Fab heterodimer, H L124R_S186R / L V133G_S176D_T178D_T180E | 0.17 nM | -0.04 | -0.04 | 0.17 nM | – |
| H1L1 Fab heterodimer of LCCA Set # 9906 (D3H44 Fab; H1 S188G, L1 S176L) | – | – | – | – | Change in median values of KD of h1l1 Fab heterodimer compared to wild type (-(log(KD design)-log(KD wt))) [6]: 0.14; Kd [7]: 0.11 nM |
| H1L1 Fab heterodimer of LCCA set 9358 (D3H44 Fab, H1 L124R_D146N_Q179K, L1 V133G_S176D_T178E) | – | – | – | – | change in median KD of H1L1 Fab heterodimer compared to wild type (-(log(KD design)-log(KD wt))) [1]: -0.07; Kd [2]: 0.18 nM |
| D3H44 H1L1 Fab heterodimer of LCCA Sets # 9237, 9236, 9234, 9239, 9243 and 9240 (H1 L124E_L143D_K145T; L1 V133G_S176R_T178K) | – | – | – | – | Change in median values of KD of h1l1 Fab heterodimer compared to wild type (-(log(KD design)-log(KD wt))) [8]: -0.15; Kd [9]: 0.22 nM |
| H1L1 Fab heterodimer of LCCA set 9351 (D3H44 Fab, H1 L124R_D146N_Q179K, L1 Q124E_V133G_S176D_T178E_T180E) | – | – | – | – | change in median KD of H1L1 Fab heterodimer compared to wild type (-(log(KD design)-log(KD wt))) [1]: -0.1; Kd [2]: 0.2 nM |
| H1L1 Fab heterodimer of LCCA Set # 9803 and 9804 (D3H44 Fab; H1 Q179R, L1 Q124E_S131T_T178F_T180E) | – | – | – | – | Change in median values of KD of h1l1 Fab heterodimer compared to wild type (-(log(KD design)-log(KD wt))) [6]: 0.14; Kd [7]: 0.11 nM |
| H1L1 Fab heterodimer of LCCA set 9359 (D3H44 Fab, H1 L124R_D146N_Q179K, L1 V133G_S176D_T178E_T180E) | – | – | – | – | change in median KD of H1L1 Fab heterodimer compared to wild type (-(log(KD design)-log(KD wt))) [1]: -0.01; Kd [2]: 0.16 nM |
| D3H44 Fab heterodimer, H1 P175C_C233S / L1 S162C_C214S (H1L1 Fab of LCCA Set # 9044) | – | – | – | – | Kd [10]: 0.18 nM |
| H1L1 Fab heterodimer of LCCA Set # 9845 and 9846 (D3H44 Fab; H1 S186K, L1 Q124E_S131T_T178Y_T180E) | – | – | – | – | Change in median values of KD of h1l1 Fab heterodimer compared to wild type (-(log(KD design)-log(KD wt))) [6]: 0.09; Kd [7]: 0.13 nM |
| D3H44 H1L1 Fab heterodimer of LCCA Sets # 9176, 9178 and 9179 (H1 L124E_L143D_K145M; L1 Q124K_V133G_S176R_T178K) | – | – | – | – | Change in median values of KD of h1l1 Fab heterodimer compared to wild type (-(log(KD design)-log(KD wt))) [8]: -0.15; Kd [9]: 0.22 nM |
| D3H44 H1L1 Fab heterodimer of LCCA Set # 9344 (H1 L124R_A125R; L1 V133G_S176D_T178D) | – | – | – | – | Change in median values of KD of h1l1 Fab heterodimer compared to wild type (-(log(KD design)-log(KD wt))) [8]: -0.23; Kd [9]: 0.27 nM |
| D3H44 Fab heterodimer, H L124R_D146N_Q179K / L V133G_S176D_T178E_T180E | 0.16 nM | -0.01 | – | – | – |
| D3H44 H1L1 Fab heterodimer of LCCA Set # 9185 (H1 L124E_L143D_K145M; L1 Q124K_V133G_S176R_T178R) | – | – | – | – | Change in median values of KD of h1l1 Fab heterodimer compared to wild type (-(log(KD design)-log(KD wt))) [8]: 0.09; Kd [9]: 0.13 nM |
| D3H44 Fab heterodimer, H L124E_L143E_K145T / L Q124K_V133G_Q160K_S176R | 0.2 nM | -0.12 | -0.12 | 0.2 nM | – |

More lines, main results first:

| Kd [3] | Change in KD with respect to wild type (-(log(KD design) - log(KD wt))) [4] | Change in KD with respect to wild type (-(log(KD design) - log(KD wt))) [5] | Kd [5] | Substance | other results |
| --- | --- | --- | --- | --- | --- |
| 0.18 nM | -0.07 | -0.07 | 0.18 nM | D3H44 Fab heterodimer, H L124R_S186K / L V133G_S176D_T178D_T180E | – |
| 0.23 nM | -0.17 | -0.17 | 0.23 nM | D3H44 Fab heterodimer, H L124R_S186K / L V133G_S176D_T178E_T180E | – |
| 0.26 nM | -0.21 | -0.21 | 0.26 nM | D3H44 Fab heterodimer, H L124R_S186R / L Q124E_V133G_S176D_T178D_T180E | – |
| 0.22 nM | -0.15 | -0.15 | 0.22 nM | D3H44 Fab heterodimer, H L124R_Q179K / L Q124E_V133G_S176D_T178E_T180E | – |
